Target: SARS-CoV-2 Beta-variant Spike with six stabilizing proline substitutions (S-6P) (SARS-CoV-2 Beta variant, strain)
Assay: BLI

B1: C143 variant VL T33N-G53V, IgG (antibody, V domains shown)
VH: EVQLVESGGGLVQPGGSLRLSCAASGFSVSTKYMTWVRQAPGKGLEWVSVLYSGGSDYYADSVKGRFTISRDNSKNALYLQMNSLRVEDTGVYYCARDSSEVRDHPGHPGRSVGAFDIWGQGTMVTVSS
VL: QSALTQPASVSGSPGQSITISCTGTSNDVGSYNLVSWYQQYPGKAPKLLIFEVTKRSSGISNRFSGSKSGNTASLTISGLQGEDEADYYCCSYAGASTFVFGGGTKLTVL
B1: binds.

From article doi:10.1101/2022.04.10.487811 (bioRxiv, 2022)
